Source: the nanobody polyreactivity screen of Harvey et al. (2022)

Experiment: yeast display, Sf9 membrane polyspecificity reagent, FACS + sequencing; frameworks hold sequencing errors
Summary of the method: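 Sorting gates, low and high (top ~1%), were placed on anti-HA fluorescence to track expression and on streptavidin fluorescence to track reagent binding. A clone's polyreactivity label is taken from the gate it came out of. The reagent was 10% biotinylated, detergent-solubilized Sf9 membrane, applied for 1 hour at 4 °C to galactose-induced yeast display cells.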

Row | Sequence | polyreactivity (PSR sort gate)
1 | QVQLVESGGGLVQAGGSLRISCAASGFTFSRNVMGWYRQAPGKERELVADITLSGASTYYADSVKGRFTISRDNAKNTVYLQMNSLNPEDTAGYYCAADPYLWRWGWRHDYWGQGTQVTVSS | low polyreactivity
2 | QVQLVESGGGLVQAGGSLRLSCAASGSIFFYYAMGWYRQAPGKERELVAAINWSGVNTYYADSVKGRFTISRDNAKNTVYLQMNSLKPEDTAVYYFNAVVSLTSYGYLGYLFDYWGQGTLVTVSS | low polyreactivity
3 | QVQLVESGRGLDQAGGSLRLSCAASGSIIGANAMGWYRQAPGKERELVAAITDNTSTTFYADSVKGRFTISRDNAKNTVYLQMNSLKPEDTAVYYCNADRAVVLSTTVWGEYDYWGQGTQVTVSS | low polyreactivity
4 | QVQLVESGGGIVQAGGSLRLSCAASGRTFYGNVMGWYRQAPGKERELVATISFSAGSTYYADSVKGRFTISRDNAKNTVYLQMNSLKPEDTAVYYCNADHTDYASGGGNYWGQGTQVTVSS | low polyreactivity
5 | QVQLVESGGGLVQAGGSLRLSCAASGRIFAYYAMGWYRQAPGKERELVAAINTSGAPTNYADSVKGRFTISRDNAKNTVYLQMISLKPEDTAVYYCAARRARYHVEYYYWGQGTQVTVSS | high polyreactivity
6 | QVQLVQSGGGLVQAGGRLRLSCAASGRIFGFYAMGWYRQAPGKERELVAAITSTGRTYYADSVKGRFTISRDNAKNTVYLQMNSLKPEDTAVYYCAAGYGRADSGWVRMNYWGQGTQVTVSS | high polyreactivity
7 | QVQLVESGGGLVQAGGSLRLSCAASGSTFPYNAMGWYRQAPGKERELVAAITWRAGRTYYADSVKGRFTISRDNAKITVYLHMNSLKAEDTAVYYCAKSYQRGVNHYEYWGQGTQVTVSS | high polyreactivity
8 | QVQLLESGGGLVQAGGSLRLSCAASGFTFWYYAMVWYRQAPGKERELVAAITRGGSTNYADSVKGRFTISRDNAKNTVYLQMNSLKPEDTAVYYCAATIYDYNRAGKYYYWGQGTQVTVSS | high polyreactivity
9 | QVQLVESGGGLVQAGGSLRLSCAASGSTFGKYAMGWYRQAPGKERELVAAITRRTGSTYYADSVKGRFTISRDNAKNTVYLQMNSLKPVDTAVYYCAARLPQYRYDYWGQGTQVTVSS | high polyreactivity
10 | QVQLVESGGGLVQAGGSLRLSCAASGRTFEIYAIGWYSKAPGKERELVAAISSGGSTYYADSVKGRFTISRDNAKNTVYLQMNSLKPEDTAVYYCAVRWYDQVSRRGIGYYWGQGTQVTVSS | low polyreactivity
11 | QVQLVESGGGLVQAGGSLRLSCAASGSTFVYYVMGWYRQAPGKERELVAAISWSDDSTYYADSVKGRFTISRDNAKNTVYLQMNSLKAEDTAVYYCAATGYPFYTSGDIEYYYWGQGTQVTVSS | low polyreactivity
12 | QVQLVESGGGLVQAGGSLRLSCAASGSTLNYNAMGWYRQAPGKERELVAAISWSGGSTYYADSVKGRFTISRDNAKNTVYLQMNSLKPEDTAVYYCAADQSTVLDVGSWGQGTQVTGSS | low polyreactivity
13 | QVQLVESGGGLVQAGGSLRLSCAASGPIFDGYVMGWYRQAPGKERELVAAISKSGARTYYADSVKGRFTISRDNAKNTVYLQMNSLKPEHTAVYYCARFSGVDNAYDYWGQGTQVTVSS | high polyreactivity
14 | QVQLVESGGGLVQAGGSLRLSCAASGRTFEGNAMGWYRQSPGKERELVAAIRWRGGRTYYADSVKGRFTISRDNAKNTVYLQLNSLNPEDTAVYYCAAAGLPPPDNDYWGQGTQVTVSS | low polyreactivity
15 | QVQLVESGGGLVQAGGSLRLSCAASGIILAFNAMGWYRQAPGKEREFVASISQGGSSTYYADSVKGRFTISRDYAKNTVYLQMNSLKPEVTAVYFCAARSSRVRSPYQRYYYWGQGTQVTVSS | high polyreactivity
16 | QVQLQESRGGLVQVGGSQRLSCAASGNIFYNYAMGWYRHANGKEREFDATINHGTSINYADSVKGRFTISRDNAKNTLYLQMNSLKPEDTAVSYCAADLSWTDNLFYWGQGTQVTVTS | low polyreactivity
17 | QVHLVESVGGLVQAGGSLRLSCAASGRTSGANAMGWYRQAPGKERELVAAIRYSVGSTYYADSVKGRFTISRDNAKNTVYLQMISLKPEDTAVYYCAARGYPKRGGYWGQGTQVTVSS | high polyreactivity
18 | QVQLVESGGGLVQAGGSLRLSCAASGRIFSKYAMGWYRQAPGKEMELDAAITRSGGSTYYADSVKGRFTISRDNAKNTVYLQMNSLKPEDTAVYYCNAGTYSTSVPYRYNYWGQGTQVTVSS | high polyreactivity
19 | QVQLVESGGGLVQAGGSLRLSCAASGLIFAYYAMGWYRQAPGKERELVAAISWSGDNTYYADSVKGRFTISRDNAKNTVYLEMNSLKPEDTAVYYCNVDTYGAWSWYYGLHHMDYWGQGTQVTVSS | low polyreactivity
20 | QVHLVESGGGLVQAGGCLRLSCAASGSIVGYNTMGWYRQAPGKERALVAAISSSGTSTNYPDSVKGRFTISRDNAKNTVYLQMNSLKPDDTAVFYCNTVLRVWSRSGYDYWGQGSQVTVSS | high polyreactivity
21 | QVQLVESGGGLVQAGGSLRLSCAASGSIFPINAMGWYRQAPGKERELVAVITSGGGGTYYADSVKGRFTISRDNAKNTVYLQMNSLKPEDSAVYYCAKRLSRKWQKFGYWGQGSQVTVSS | low polyreactivity
22 | QVQLVESGGGLVQAGGSLRLSCAASGSIFYVYAMGWYRQAPGKEREMVAAINTSGGSTFYADSVKGRFTISRDNAKNTVYLQMNSLKPEETAVYYCAAERYRYRSTDTMVYWGQGTQVTVSS | low polyreactivity

Row | Sequence | polyreactivity (PSR sort gate)
23 | QVQLVESGGGLVQAGGSLRLSCAASGSIFTGNAMGWYRQAPGKERELVAAITNGGITNYADSVKGRFTISRDNAKNTVYLQMNSLKPEDTAVYYCAADYVDFYSFRRFDYWGQGTQVTVSS | low polyreactivity
24 | QVQLVESGGGLVQAGGSLRLSCAASGIIFYDYAMGWYRQAPGKERELVAAISRSGGSTYYADSVKGRFTISRDNATNTVYLQMNSLKPEDTAVYYCNADEVVWGYNYWGQGTQVTVSS | low polyreactivity
25 | QVQLVESGGGLVQAGGSLRLSCAASGSILGVYTMGWDRQAPGKERELVAAITSSSSSTYADSVKGRFTISRDNAKNTVYLQMNSVIPEDTAVYYCATRGWSKQLYGGYTQYYYWGQGTQVTVSS | high polyreactivity
26 | QVQLVESGGGLVQAGGSLRLSCAAPGSTFYLYAMGWYRQAPGKERELVAAISSGGRTNYADSVKGRFTISRDNAKNTVYLQMNSLKPEDTAVYYCAARIQCPTWSLYYYWGQGTQVTVSS | high polyreactivity
27 | QVQLVESGGGLVQAGGSLRLSCAASGSTFGQYAMGWYRQAPGKELELVAAISSGGRTNYADSVKGRFTISRDNAKNPVYLQMNSLKPEDTAVYYCAARYYFPFRRFRRMDYWGQGTQVTVSS | high polyreactivity
28 | QVQLVESGGGLVQAGGSLRLSCAASGLTFVKNAMGWYRQAPGKERELVATISSGGSTNYADSVKGRFTISRDNAKNTVYLQMNSLKPEDTAVYYCNKDYTGVLLWIWWDRYDYWGQATQVTVSS | high polyreactivity
29 | QVHLVESGGGLVQAGRSLRLSCAASGIIFQLYAMGWYRQPPGKERELVATISSVGSTNYADSVKGRFTISRDNAKNTVYLEMTSLNPEDTAVYYCNAARYGWGYFYGLNYWGQGTQVTVSS | low polyreactivity
30 | QVQLVESGGGLVQAGGSLRLSCAASGSTLPGNVMGWYRQAPGKERELVAAISKRGASTYYADSVKGRFTISRDNAKNNVYLQTPRLKPEDSAVYYCASRTRGSVVRFDYWGQGTQVTVSS | high polyreactivity
31 | QVQLVESGGGLVQAGGSLRLSCAASGRTFTRYAMGWYRQAPGKERELVATITRGGSTNYADSVKGRFTISRDNAKNTVYLQMNSLKPEDTAVYYCAAGYFIRTRSRYRYDYWGQGTQVTVSS | high polyreactivity
32 | QVQLVESGGGLVQAGGSLRLSCAASGFIFYSYAMGWYRQAPGKERELVATITSGGSTNYADSVKGRFTISRDNAKNTVYLQMNSLKPEDTAVYYCAARYYPFWARRNRYDYWGQGTQVTVSS | high polyreactivity
33 | QVQLVESGGGLVQAGGSLRLSCAASGRTIWWYAMGWYRQAPGKERELVAAITWIGGSTYYADSVKGRFTISRDNAKNTVYLKMNSLKPEDTAVYFCNVVYYGRTWVPYEWEYDYWGQGTQVTVSS | low polyreactivity
34 | QVQLVESGGGLVQAGGSLRLSCAASRSIFVRNAMGWYRPAPGKERELVAAITSDVNTYYADSVKGRFTISRDNAKNTVYLQMNSLKPEDTAVYYCAKGVTSQPNDPAPFPRYEYWGQGTQVTVSS | low polyreactivity
35 | QVQLVESGGGLVQAGGSLRLSCAASGSIFVSNAMGWYRQAPGKERELVAAISQSGGSTYYADSVKGRFTISRDNAKNTVYLQMNSLKPEDTAVYYCATPIRSGFRIYDYWGQGTQVTVSS | low polyreactivity
36 | QVQLVESGGGLVQAGGSLRLSCAASGFTFGYNAMGWYRQAPGKERELVAAITSGGSTNYADSVKGRFTISRDNAKNTVYLQMNSLKPEDTAVYYCATGVRPWRKKPVEFYHRGQGTQVTVSS | low polyreactivity
37 | QVQLVESGGGLVQARGTRRLSSAACGRTFGSYAMGWYRQAPGKERELVAAISRSDGSTYYADSVKGRFSISRDNEKNTVYFQMNSLKPEDTAVYYCAAKRWYVSYDYDYWGQGTQVTVSS | high polyreactivity
38 | QVQLVESGGGLVQAGGSLRLSCAASGIIFYDYVMGWYRQAPGKERELVTAISSNGGSTYYADSVKGRFTISRDNAKNTVYLQMNRLKPEDTAVYYCAAEGKSYPWPWYFDYWGQGTQVTVSS | high polyreactivity
39 | QVQLVESGGGLVQAGGSLRLSCAASGSTFSANDMGWYRQAPGKEREFDAAITTSDDSTYYADSVKGRFTISRDNAKNTVYLQMNSVKPEDTAVYYCNAYSGYSFFGLGFFYKYDYWGQGTQVTVSS | low polyreactivity
40 | QVQLVESGGGLVQGGGSLRLSCAASGLIFSYYAMGWYRQAPGKERELVAAISRGGATNYADSVKGRFTISRDTAKNTVYLQMNSLKPEDTAVYYCSARFVLRRDYGYWGQGTQVTVSS | high polyreactivity
41 | QVQLVESGGGLVQAGGSLRLSCAASGSTFWYYAMGWYRQAPGKERELVAAISRSTGSTYYADSVKGRFTISRDNAKNTVYLQMNSLKPEDTAVYYCNKDPVPSFFIPEIGYSEYDYWGQGTQVTVSS | low polyreactivity
42 | QVQLVESGGGLVQAGGSLRLSCAASGRIFNPNAMGWYRQAPGKERELVAAITSGDSTNYADSVKGRFTISRDNAKNTVYLQMNSLKPEDTAVYYCAAGPSKRPPWLRQGGYDYWGQGTQVTVSS | low polyreactivity
43 | QVQLVETGVGLVQAGGSLRLSCAASGRIFLVYAMGWYRQAPGKERELVAAISWRGGRTYYADSVKGRFTISRDNAKNTVYLQMNSLIPEDTAVYYCAAASKYSQFEYDYWGQGTQVTVSS | high polyreactivity
